The values that follow come from patent EP4711384A1 (WIO Bioscience Co., Ltd., dated 2026).

Usually EC50 stands for the concentration giving half of the maximal effect. A low value points to an effect from little substance.

“And” between values parts separate entries of the source, which are not always exact repeats. Identical values can stand only once. Like-named read-outs stand apart in the source and are kept apart here.

Assay [1] deals with T1, human IL-18R1 and IL-18RAP on IL-18 Reporter HEK 293 Cells (human, UniProt Q13478 19-541; O95256 20-599).
T1 sequence (looked up) 1: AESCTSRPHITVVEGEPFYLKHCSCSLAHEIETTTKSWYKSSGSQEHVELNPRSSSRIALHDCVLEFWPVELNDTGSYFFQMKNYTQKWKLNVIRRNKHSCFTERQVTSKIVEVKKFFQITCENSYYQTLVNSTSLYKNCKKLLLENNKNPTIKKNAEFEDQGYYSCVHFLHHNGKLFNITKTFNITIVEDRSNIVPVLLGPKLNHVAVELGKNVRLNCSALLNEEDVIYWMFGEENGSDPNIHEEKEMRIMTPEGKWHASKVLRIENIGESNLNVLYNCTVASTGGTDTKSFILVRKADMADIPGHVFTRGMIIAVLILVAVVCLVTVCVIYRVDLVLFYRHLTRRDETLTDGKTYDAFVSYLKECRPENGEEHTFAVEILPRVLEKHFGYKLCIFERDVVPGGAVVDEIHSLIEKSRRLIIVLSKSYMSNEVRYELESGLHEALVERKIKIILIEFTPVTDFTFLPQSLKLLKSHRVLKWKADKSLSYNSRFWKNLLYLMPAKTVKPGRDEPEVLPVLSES
T1 sequence (looked up) 2: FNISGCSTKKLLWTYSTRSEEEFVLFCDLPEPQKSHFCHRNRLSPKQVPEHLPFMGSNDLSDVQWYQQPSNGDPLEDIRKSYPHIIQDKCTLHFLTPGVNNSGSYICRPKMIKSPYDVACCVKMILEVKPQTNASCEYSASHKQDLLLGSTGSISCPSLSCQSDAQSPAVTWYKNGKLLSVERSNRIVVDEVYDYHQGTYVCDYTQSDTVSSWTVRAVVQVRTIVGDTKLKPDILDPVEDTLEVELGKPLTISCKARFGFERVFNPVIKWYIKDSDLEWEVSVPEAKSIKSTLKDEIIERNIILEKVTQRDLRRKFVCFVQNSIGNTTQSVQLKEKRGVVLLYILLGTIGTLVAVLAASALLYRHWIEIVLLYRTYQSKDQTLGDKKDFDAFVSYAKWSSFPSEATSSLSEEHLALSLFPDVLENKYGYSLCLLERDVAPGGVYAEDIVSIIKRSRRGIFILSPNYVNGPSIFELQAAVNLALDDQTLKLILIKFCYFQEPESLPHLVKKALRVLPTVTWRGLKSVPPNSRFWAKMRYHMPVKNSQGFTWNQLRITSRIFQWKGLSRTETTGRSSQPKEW
Description: cell-based or functional assay.

The target of assay [2] is T2, human IL-18R1 ECD-His (human) (UniProt Q13478).
T2 sequence: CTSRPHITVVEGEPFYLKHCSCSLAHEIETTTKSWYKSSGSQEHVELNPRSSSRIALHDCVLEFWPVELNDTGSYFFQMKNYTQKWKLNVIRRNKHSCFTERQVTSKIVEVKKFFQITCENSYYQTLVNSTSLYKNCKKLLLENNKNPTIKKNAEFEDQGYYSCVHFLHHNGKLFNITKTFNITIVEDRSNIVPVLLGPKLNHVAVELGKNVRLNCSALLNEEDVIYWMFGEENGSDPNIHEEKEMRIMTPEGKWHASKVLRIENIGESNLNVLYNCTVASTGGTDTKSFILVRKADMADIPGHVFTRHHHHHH
As to the kind of experiment: sandwich ELISA, IL-18RAP ECD-hFc detection. (In general: ELISA stands for enzyme-linked immunosorbent assay.)

Assay [3] deals with T1, human IL-18R1 and IL-18RAP on IL-18 …. Description: cell-based or functional assay. This is another data set of the same source.
Assay [4] has the same target. As to the kind of experiment: cell-based or functional assay. The source holds these as a separate data set.
In assay [5] the target is T2, human IL-18R1 ECD-His (human). As to the kind of experiment: phage ELISA, 4-fold dilution.
Assay [6] shares this target. As to the kind of experiment: phage ELISA, 16-fold dilution.

B1: Wio-02-44 (Rap-A10-GGGGS-R1-E12) (bispecific antibody)
chain: QVQLQESGGGLVQAGGSLKLSCAASGYTYGPYCMGWFRQFPGKEREGVAAVGGDGRTWYGNSVKGRFTISQDNAKKTLYLQINALKPEDTAMYYCAADFDRTVCSDDIYDYTYRGQGTQVTVSSGGGGSQVQLQESGGGSVQAGGSLRLSCVASGTTMSMNYMAWFRQAPGKEREGVASIFRSTHYADSVKGRFTIAEDSAKNTVYLQMNSLKPEDTAVYYCAAGRTKPYLTPLAESQYNYWGQGIQVTVSS
Take B1: in assay [1], the “SEAP reporter OD, supernatant 5X” value turned out to be 1.31 and the “SEAP reporter OD, supernatant 25X” value was determined as 1.37. For the same molecule, the ELISA OD in assay [2] is 1.87 and 1.94.

B2: Wio-02-09 (R1-C10-GGGGS-Rap-F11) (bispecific antibody)
chain: QVQLQESGGGSVQAGETLRLSCTASGSTFDEYDMGWYRQAPGNKCELVSTISTIDGSTYYADSVKGRFTISQDNTKNTVYLQMNSLKPEDTGVYYCEADDRGTWDRGGCWGQGTQVTVSSGGGGSQVQLQESGGGSVQPGGSLRLSCAASGFTYIPAYMGWFRQAPGKERERVASIKTDGSTTYADSVNGRFTIAQDTAKNTLYLQMDSLKPEDTAMYYCAAYQFGAFRVWGQGTQVTVSS
As to B2, in assay [1], the “SEAP reporter OD, supernatant 5X” value came out at 1.91 and the “SEAP reporter OD, supernatant 25X” value stood at 1.87. In assay [2], the ELISA OD was 1.81 and 1.82.

B3: Wio-02-30 (Rap-C10-GGGGS-R1-C10) (bispecific antibody)
chain: QVQLQESGGGSVQPGGSLRLSCAASGFTYIPAYMGWFRQAPGKERERVASISSTDGSTTYADSVKGRFTVSQDTAKNTLYLQMNSLKPEDTAMYYCAAYQFGAFRVWGQGTQVTVSSGGGGSQVQLQESGGGSVQAGETLRLSCTASGSTFDEYDMGWYRQAPGNKCELVSTISTIDGSTYYADSVKGRFTISQDNTKNTVYLQMNSLKPEDTGVYYCEADDRGTWDRGGCWGQGTQVTVSS
For the molecule B3, in assay [1], the “SEAP reporter OD, supernatant 5X” value worked out at 1.59 and the “SEAP reporter OD, supernatant 25X” value was 1.18. Moreover, the ELISA OD in assay [2] was 2.16 and 2.29.

B4: Wio-02-03 (R1-C7-GGGGS-Rap-F11) (bispecific antibody)
chain: QVQLQESGGGPVQAEGSLRLSCTASGNLYRDPCMGWFRQAPGKDREGVAAMNTGADSTFYARSVKGRFTISHDNAKNTLYLQMNSVKPEDTAMYYCAASRYCTERTWTWRYDYDYWGQGTQVTVSSGSQVQLQESGGGSVQPGGSLRLSCAASGFTYIPAYMGWFRQAPGKERERVASIKTDGSTTYADSVNGRFTIAQDTAKNTLYLQMDSLKPEDTAMYYCAAYQFGAFRVWGQGTQVTVSS
As for B4, in assay [1], the “SEAP reporter OD, supernatant 5X” value came to 1.39 and the “SEAP reporter OD, supernatant 25X” value was found to be 0.608. The ELISA OD in assay [2] was 1.74 and 1.85.

B5: hzWio-02-44 (His form) (bispecific antibody)
chain: EVQLLESGGGLVQPGGSLRLSCAASGYTYGPYCMGWFRQAPGKEREGVAAVGGDARTWYGNSVKGRFTISRDNSKNTLYLQMNSLRAEDTAVYYCAADFDRTVCSDDIYDYTYRGQGTLVTVSSGGGGSQVQLQESGGGSVQAGGSLRLSCVASGTTMSMNYMAWFRQAPGKEREGVASIFRSTHYADSVKGRFTIAEDSAKNTVYLQMNSLKPEDTAVYYCAAGRTKPYLTPLAESQYNYWGQGIQVTVSSHHHHHH
Take B5: in assay [3], the EC50 came to 2.66 ng/mL and the Top630nm amounted to 0.912.

B6: hzWio-02-31 (His form) (bispecific antibody)
chain: EVQLVESGGGLVQPGGSLRLSCAASGFTYIPAYMGWFRQAPGKERERVASISSTEGSTTYADSVKGRFTISQDNSKNTLYLQMNSLRPEDTAVYYCAAYQFGAFRVWGQGTLVTVSSGGGGSEVQLVESGGGLVQPGGSLRLSCAASGFTVHDMGWYRQAPGKECELVSTISSDASTYYADSVKGRFTISRDNAKNTLYLQMNSLRAEDTAVYYCAADSFTGLQLAECKADFGYWGQGTLVTVSSHHHHHH
In assay [3], B6 came in with an EC50 of 2.58 ng/mL and a Top630nm of 0.779.

B7: hzWio-02-01-His (bispecific antibody)
chain: EVQLVESGGGLVQPGGSLRLSCAASGTAYDNACMGWFRQAPGKEREGVASIHLRDRTYYADSVKGRFTISRDNSKNTLYLQMNSLRAEDTAVYYCASSNICNALNLQGNTYWGQGTLVTVSSGGGGSEVQLLESGGGLVQPGGSLRLSCAASGYTYGPYCMGWFRQAPGKEREGVAAVGGDARTWYGNSVKGRFTISRDNSKNTLYLQMNSLRAEDTAVYYCAADFDRTVCSDDIYDYTYRGQGTLVTVSSHHHHHH
For B7, in assay [3], a half-maximal response (EC50) required 0.417 ng/mL and the Top630nm worked out at 1.93. In assay [4], this molecule registered an EC50 of 2.3 ng/mL and a Top530nm of 1.05.

B8: Wio-02-29 (Rap-A10-GGGGS-R1-A12) (bispecific antibody)
chain: QVQLQESGGGLVQAGGSLKLSCAASGYTYGPYCMGWFRQFPGKEREGVAAVGGDGRTWYGNSVKGRFTISQDNAKKTLYLQINALKPEDTAMYYCAADFDRTVCSDDIYDYTYRGQGTQVTVSSGGGGSQVQLQESGGGPVQAGGSLRLSCSASTTAYDNACMGWFRQAPGKEREGVASIHLRDRTYYADSVKGRFTLSRDGASKTLYLQMNSLKPEDSGTYYCASSNICNGLNLQGNTYWGQGTQVTVSS
As for B8, in assay [1], the “SEAP reporter OD, supernatant 5X” value was 1.51 and the “SEAP reporter OD, supernatant 25X” value is 1.23. Further, the ELISA OD in assay [2] is 2.05 and 2.04.

B9: Wio-02-05 (R1-C7-GGGGS-Rap-C10) (bispecific antibody)
chain: QVQLQESGGGPVQAEGSLRLSCTASGNLYRDPCMGWFRQAPGKDREGVAAMNTGADSTFYARSVKGRFTISHDNAKNTLYLQMNSVKPEDTAMYYCAASRYCTERTWTWRYDYDYWGQGTQVTVSSGGGGSQVQLQESGGGSVQPGGSLRLSCAASGFTYIPAYMGWFRQAPGKERERVASISSTDGSTTYADSVKGRFTVSQDTAKNTLYLQMNSLKPEDTAMYYCAAYQFGAFRVWGQGTQVTVSS
As to B9, in assay [1], the “SEAP reporter OD, supernatant 5X” value amounted to 1.97 and the “SEAP reporter OD, supernatant 25X” value was 1.86. For the same molecule, the ELISA OD in assay [2] is 1.88 and 1.9.

B10: R1-C10 (VHH)
VHH: QVQLQESGGGSVQAGETLRLSCTASGSTFDEYDMGWYRQAPGNKCELVSTISTIDGSTYYADSVKGRFTISQDNTKNTVYLQMNSLKPEDTGVYYCEADDRGTWDRGGCWGQGTQVTVSS
Consider B10, for which the ELISA OD in assay [5] worked out at 1.33; in assay [6] it was 0.977.

B11: Wio-02-31 (Rap-C10-GGGGS-R1-F9) (bispecific antibody)
chain: QVQLQESGGGSVQPGGSLRLSCAASGFTYIPAYMGWFRQAPGKERERVASISSTDGSTTYADSVKGRFTVSQDTAKNTLYLQMNSLKPEDTAMYYCAAYQFGAFRVWGQGTQVTVSSGGGGSQVQLQESGGGSVQAGETLRLSCTASGFTVHDMGWYRQAPGNECELVSTISSDGSTYYADSVKGRFTISQDNAKNTVYLQMNSLKPEDTAVYYCAADHFTGLQLAECKADFGYWGQGTQVTVSS
Consider B11, for which, in assay [1], the “SEAP reporter OD, supernatant 5X” value is 1.66 and the “SEAP reporter OD, supernatant 25X” value came out at 1.77. The ELISA OD in assay [2] is 2.17 and 2.18.

B12: Wio-02-11 (R1-C10-GGGGS-Rap-C10) (bispecific antibody)
chain: QVQLQESGGGSVQAGETLRLSCTASGSTFDEYDMGWYRQAPGNKCELVSTISTIDGSTYYADSVKGRFTISQDNTKNTVYLQMNSLKPEDTGVYYCEADDRGTWDRGGCWGQGTQVTVSSGGGGSQVQLQESGGGSVQPGGSLRLSCAASGFTYIPAYMGWFRQAPGKERERVASISSTDGSTTYADSVKGRFTVSQDTAKNTLYLQMNSLKPEDTAMYYCAAYQFGAFRVWGQGTQVTVSS
For the molecule B12, in assay [1], the “SEAP reporter OD, supernatant 5X” value was determined as 2.85 and the “SEAP reporter OD, supernatant 25X” value was 2.17. In addition, the ELISA OD in assay [2] was 2.03 and 2.15.

B13: Wio-02-23 (R1-F9-GGGGS-Rap-C10) (bispecific antibody)
chain: QVQLQESGGGSVQAGETLRLSCTASGFTVHDMGWYRQAPGNECELVSTISSDGSTYYADSVKGRFTISQDNAKNTVYLQMNSLKPEDTAVYYCAADHFTGLQLAECKADFGYWGQGTQVTVSSGGGGSQVQLQESGGGSVQPGGSLRLSCAASGFTYIPAYMGWFRQAPGKERERVASISSTDGSTTYADSVKGRFTVSQDTAKNTLYLQMNSLKPEDTAMYYCAAYQFGAFRVWGQGTQVTVSS
As for B13, in assay [1], the “SEAP reporter OD, supernatant 5X” value was 1.78 and the “SEAP reporter OD, supernatant 25X” value is 1.9. The ELISA OD in assay [2] is 1.73 and 1.83.
